# ± gives the standard deviation of the averaged measurements.
# B1: library; a variant is named by its letters at N, in order (parent)
# chain: GCUGUCACCGGUGUAUUACCCUAGUGGUCGACCGGUCUGAUGAGUCUNNNNNNAGACGAAACAGC
# Assays:
# hypoxanthine [1] = variants of: B1; test: FACS-Seq fitted mean relative fluorescence mCherry/BFP without ligand (log10 relative fluorescence); ligand: hypoxanthine (xanthine aptamer); higher = higher reporter protein expression; settings: HEK293T, ligand present: no
# Method: (§1)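 Hammerhead (sTRSV) ribozyme switch libraries with a ligand aptamer grafted on stem I and a randomized N4-6 loop II, cloned into the 3' UTR of mCherry and transiently transfected into HEK293T cells; RNA-Seq 72 h post transfection with ligand added 1 h before transfection; RNA read count / plasmid DNA read count normalized to the non-cleaving sTRSVctl (x100), log10; sequences with >100 DNA reads. FACS-Seq: lentiviral library sorted into 6 bins after 48 h ligand, log-normal fit mean of mCherry/BFP scaled to controls. Printed sequences are partial switch sequences.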
# hypoxanthine [2] = variants of: B1; test: normalized RNA/DNA level with ligand (relative to sTRSVctl = 100) (log10 (% of sTRSVctl)); ligand: hypoxanthine (xanthine aptamer); higher = less ribozyme self-cleavage, higher mRNA level; settings: ligand concentration (+) RNA-Seq: 5 mM, HEK293T, reporter: mCherry (pCS4076), ligand present: yes
# Method: as §1
# hypoxanthine [3] = variants of: B1; test: normalized RNA/DNA level without ligand (relative to sTRSVctl = 100) (log10 (% of sTRSVctl)); ligand: hypoxanthine (xanthine aptamer); higher = less ribozyme self-cleavage, higher mRNA level; settings: HEK293T, reporter: mCherry (pCS4076), ligand present: no
# Method: as §1
# hypoxanthine [4] = variants of: B1; test: FACS-Seq fitted mean relative fluorescence mCherry/BFP with ligand (log10 relative fluorescence); ligand: hypoxanthine (xanthine aptamer); ligand concentration (+) FACS-Seq: 5 mM; higher = higher reporter protein expression; settings: HEK293T, ligand present: yes
# Method: as §1
Variant,FACS-Seq fitted mean (log10) (hypoxanthine [1]),normalized RNA/DNA level with ligand (log10) (hypoxanthine [2]),normalized RNA/DNA level without ligand (log10) (hypoxanthine [3]),FACS-Seq fitted mean (log10) (hypoxanthine [4])
GAAAGG,0.141 ± 0.013,1.74 ± 0.029,1.2 ± 0.07,0.614 ± 0.017
GAAAGU,0.233 ± 0.011,1.91 ± 0.022,1.752 ± 0.0063,0.17 ± 0.018
GAAAGA,0.507 ± 0.093,1.92 ± 0.029,1.71 ± 0.033,0.581 ± 0.065
GAAAGC,0.368 ± 0.056,1.86 ± 0.028,1.39 ± 0.084,0.776 ± 0.043
AAACAU,0.519 ± 0.022,1.86 ± 0.028,1.762 ± 0.0068,0.664 ± 0.099
AAACAA,0.4127 ± 0.0021,1.902 ± 0.011,1.73 ± 0.022,0.382 ± 0.014
AAACAG,-0.248 ± 0.031,1.77 ± 0.058,1.35 ± 0.055,0.234 ± 0.03
UAACGC,0.329 ± 0.043,1.92 ± 0.058,1.74 ± 0.031,0.365 ± 0.011
UAACGA,0.432 ± 0.054,1.91 ± 0.033,1.6909 ± 0.0004,0.324 ± 0.072
UAACAA,-0.143 ± 0.032,1.9154 ± 0.0012,1.7546 ± 0.00028,-0.012 ± 0.012
UAACAG,0.366 ± 0.019,1.849 ± 0.012,1.5574 ± 0.00043,0.581 ± 0.031
AAAAAG,0.286 ± 0.03,1.841 ± 0.013,1.52 ± 0.036,0.588 ± 0.046
AAAAAA,0.738 ± 0.02,1.9 ± 0.042,1.8 ± 0.033,0.664 ± 0.03
AAAAAU,0.418 ± 0.0049,1.9 ± 0.06,1.74 ± 0.023,0.55 ± 0.021
AAACCG,0.278 ± 0.022,1.8 ± 0.029,1.37 ± 0.029,0.73 ± 0.045
AAACCU,0.484 ± 0.082,1.94 ± 0.033,1.87 ± 0.02,0.2749 ± 0.00055
AAACCC,0.474 ± 0.095,1.95 ± 0.022,1.833 ± 0.0068,0.431 ± 0.021
AAACCA,0.0882 ± 0.014,1.924 ± 0.014,1.81 ± 0.016,0.122 ± 0.038

Variant,FACS-Seq fitted mean (log10) (hypoxanthine [1]),normalized RNA/DNA level with ligand (log10) (hypoxanthine [2]),normalized RNA/DNA level without ligand (log10) (hypoxanthine [3]),FACS-Seq fitted mean (log10) (hypoxanthine [4])
CAACAU,0.722 ± 0.052,1.87 ± 0.032,1.75 ± 0.035,0.672 ± 0.078
CAACAC,0.465 ± 0.089,1.895 ± 0.0089,1.69 ± 0.047,0.206 ± 0.043
CAACGC,0.362 ± 0.014,1.92 ± 0.073,1.87 ± 0.019,0.326 ± 0.019
CAACGA,0.153 ± 0.16,1.951 ± 0.011,1.79 ± 0.036,0.353 ± 0.055
GAAAUA,0.105 ± 0.023,1.92 ± 0.055,1.85 ± 0.028,0.082 ± 0.037
GAAAUG,0.0921 ± 0.028,1.86 ± 0.075,1.44 ± 0.035,0.497 ± 0.047
GAAACU,0.54 ± 0.047,1.92 ± 0.042,1.89 ± 0.039,0.481 ± 0.042
GAAACG,0.287 ± 0.024,1.88 ± 0.023,1.51 ± 0.048,0.561 ± 0.048
GAAACC,0.401 ± 0.023,1.897 ± 0.011,1.85 ± 0.022,0.469 ± 0.033
GAAACA,0.6 ± 0.025,1.91 ± 0.047,1.857 ± 0.0049,0.389 ± 0.13
CAAAUC,0.445 ± 0.1,1.95 ± 0.039,1.927 ± 0.0086,0.495 ± 0.037
CAAAUA,0.317 ± 0.014,1.9 ± 0.06,1.7391 ± 0.00044,0.196 ± 0.037
UAAAGG,0.355 ± 0.035,1.84 ± 0.023,1.45 ± 0.05,0.675 ± 0.094
UAAAGC,0.687 ± 0.044,1.92 ± 0.024,1.799 ± 0.0067,0.694 ± 0.029
UAAAGU,0.334 ± 0.017,1.89 ± 0.05,1.54 ± 0.076,0.708 ± 0.063
AAAACG,0.284 ± 0.015,1.85 ± 0.053,1.43 ± 0.017,0.616 ± 0.077
AAAACA,0.709 ± 0.064,1.897 ± 0.015,1.804 ± 0.015,0.65 ± 0.023

# Reference: the supplement of paper PMC6757056
